T1: MdNAC104 (Malus domestica (apple)?, UniProt D9ZJ88 1-204)
T1 sequence: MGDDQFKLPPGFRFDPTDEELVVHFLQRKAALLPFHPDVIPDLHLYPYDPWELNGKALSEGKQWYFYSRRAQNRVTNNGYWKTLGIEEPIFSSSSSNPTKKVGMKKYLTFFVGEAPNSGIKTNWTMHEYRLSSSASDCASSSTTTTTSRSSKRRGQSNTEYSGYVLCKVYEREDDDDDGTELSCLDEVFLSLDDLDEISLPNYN

B1: MdGAD1 mutant probe 1 (dsDNA)
DNA 1: GCGCTGCACCTAAAAATTCCATTTCTGGAC
DNA 2: GTCCAGAAATGGAATTTTTAGGTGCAGCGC
B2: MdGAD1 mutant probe 3 (dsDNA)
DNA 1: AAAAAATGGGGCAAAATGGGCTTCACTGTC
DNA 2: GACAGTGAAGCCCATTTTGCCCCATTTTTT
B3: MdGAD1 mutant probe 2 (dsDNA)
DNA 1: CAAACCATTTGCAAAATCCTTAAAGCGATT
DNA 2: AATCGCTTTAAGGATTTTGCAAATGGTTTG
B4: MdALMT13 probe 2 (dsDNA)
DNA 1: CTTATTTCAAAAACACGGGTGAACAGTAAA
DNA 2: TTTACTGTTCACCCGTGTTTTTGAAATAAG
B5: MdGAD1 probe 2 (dsDNA)
DNA 1: CAAACCATTTGCCACGTCCTTAAAGCGATT
DNA 2: AATCGCTTTAAGGACGTGGCAAATGGTTTG
B6: MdALMT13 probe 4 (dsDNA)
DNA 1: ATGTATATATAAACACGATATCTCCCTTCC
DNA 2: GGAAGGGAGATATCGTGTTTATATATACAT
B7: MdALMT13 probe 3 (dsDNA)
DNA 1: CTTTTGCATTCAGCACGCACTCGCAAAACC
DNA 2: GGTTTTGCGAGTGCGTGCTGAATGCAAAAG
B8: MdGAD1 probe 1 (dsDNA)
DNA 1: GCGCTGCACCTACACGTTCCATTTCTGGAC
DNA 2: GTCCAGAAATGGAACGTGTAGGTGCAGCGC
B9: MdGAD1 probe 3 (dsDNA)
DNA 1: AAAAAATGGGGCCACGTGGGCTTCACTGTC
DNA 2: GACAGTGAAGCCCACGTGGCCCCATTTTTT

Biological target: T1, MdNAC104
Assay: EMSA; LightShift Chemiluminescent EMSA Kit (Thermo) per manufacturer; buffer, salt, pH and temperature not stated
Settings: protein: recombinant; tags: His (pET-32a vector); blunt

Binding result, no binding:
B1
B2
B3

Same assay, conditions: protein: recombinant; tags: His (pET-32a vector); label: 5' biotin; blunt

Binding result, binds:
B4
B5
B6
B7
B8
B9
